# Patent publication US20150232556A1 (INNATE PHARMA, published 2015)
# What was measured:
# [1] = biological target: T1, wild-type human KIR3DL2 polypeptide (allele *002) (human, UniProt P43630 22-455); experiment: binding to HEK-293T cells transfected with wild-type KIR3DL2
# T1 construct: also called WTaKIR3DL2; unmutated wild type KIR3DL2
# [2] = biological target: T2, KIR3DL2 mutant M12 (I196A; L199A; N285A; S286A) (human, UniProt P43630 22-455); experiment: binding to HEK-293T cells transfected with KIR3DL2 mutant
# T2 construct: On transfected HEK-293T cells; also called Mutant 12; Number 12
# [3] = biological target: T3, KIR3DL2 mutant M13 (T212A; N218A) (human, UniProt P43630 22-455); experiment: as above
# T3 construct: On transfected HEK-293T cells; also called Number 13
# [4] = biological target: T4, KIR3DL2 mutant M17 (P249A) (human, UniProt P43630 22-455); experiment: as above
# T4 construct: On transfected HEK-293T cells; also called Mutant 17; Number 17
# [5] = biological target: T5, KIR3DL2 mutant M18 (A278H; L279A; C281A; V282A) (human, UniProt P43630 22-455); experiment: as above
# T5 construct: On transfected HEK-293T cells; also called Number 18
# [6] = biological target: T6, KIR3DL2 mutant M19 (A278H; L279S; V282E) (human, UniProt P43630 22-455); experiment: as above
# T6 construct: On transfected HEK-293T cells; also called Number 19
# [7] = biological target: T7, KIR3DL2 mutant M21 (C281Y; C315P) (human, UniProt P43630 22-455); experiment: as above
# T7 construct: On transfected HEK-293T cells; also called Number 21
# [8] = biological target: T8, KIR3DL2 mutant M14 (W226A) (human, UniProt P43630 22-455); experiment: binding to HEK-293T cells transfected with KIR3DL2 mutant; '-' = substantially complete loss of binding
# T8 construct: On transfected HEK-293T cells; also called Mutant 14; Number 14
# [9] = biological target: T9, KIR3DL2 mutant M3 (R32H; G33R) (human, UniProt P43630 22-455); experiment: binding to HEK-293T cells transfected with KIR3DL2 mutant
# T9 construct: On transfected HEK-293T cells; also called Mutant 3; Number 3
# [10] = biological target: T10, KIR3DL2 mutant M4 (S45I; V47I) (human, UniProt P43630 22-455); experiment: as above
# T10 construct: On transfected HEK-293T cells; also called Number 4
# [11] = biological target: T11, KIR3DL2 mutant M6 (R78H; L82P) (human, UniProt P43630 22-455); experiment: as above
# T11 construct: On transfected HEK-293T cells; also called Mutant 6; Number 6
# [12] = biological target: T12, KIR3DL2 mutant M1 + 2A1 (F50A; R53S) (human, UniProt P43630 22-455); experiment: as above
# T12 construct: On transfected HEK-293T cells; also called Number 33 (1 + 2 A1)
# [13] = biological target: T13, KIR3DL2 mutant M1 + 2A3 (P14S; S15A; H23S) (human, UniProt P43630 22-455); experiment: as above
# T13 construct: On transfected HEK-293T cells; also called mutant 2A3; Number 35 (1 + 2 A3)
# [14] = biological target: T14, KIR3DL2 mutant M1 (R13W; A25T; Q27R) (human, UniProt P43630 22-455); experiment: binding to HEK-293T cells transfected with KIR3DL2 mutant; '-' = substantially complete loss of binding
# T14 construct: On transfected HEK-293T cells; also called Mutant 1; Number 1
# [15] = biological target: T15, KIR3DL2 mutant M2 (I60N; G62S) (human, UniProt P43630 22-455); experiment: as above
# T15 construct: On transfected HEK-293T cells; also called Mutant 2; Number 2
# [16] = biological target: T16, KIR3DL2 mutant M1 + 2 (R13W; A25T; Q27R; I60N; G62S) (human, UniProt P43630 22-455); experiment: as above
# T16 construct: On transfected HEK-293T cells; also called Number 30 (1 + 2)
# [17] = biological target: T14, KIR3DL2 mutant M1 (R13W; A25T; Q27R); experiment: binding to HEK-293T cells transfected with KIR3DL2 mutant
# [18] = biological target: T15, KIR3DL2 mutant M2 (I60N; G62S); experiment: as above
# KIR3DL2 mutant M5 (P66T) = biological target: T17, KIR3DL2 mutant M5 (P66T) (human, UniProt P43630 22-455); experiment: as above
# T17 construct: On transfected HEK-293T cells; also called Number 5
# [19] = biological target: T18, KIR3DL2 mutant M1 + 2A5 (S140Q) (human, UniProt P43630 22-455); experiment: as above
# T18 construct: On transfected HEK-293T cells; also called Number 37 (1 + 2 A5)
# [20] = biological target: T16, KIR3DL2 mutant M1 + 2 (R13W; A25T; …); experiment: as above
# [21] = biological target: T19, KIR3DL2 mutant MD0/HLA1 (F9S; S11A) (human, UniProt P43630 22-455); experiment: as above
# T19 construct: On transfected HEK-293T cells; also called Number 31 (DO-HLA1)
# [22] = biological target: T20, KIR3DL2 mutant MD0/HLA2 (H29S; F34A) (human, UniProt P43630 22-455); experiment: as above
# T20 construct: On transfected HEK-293T cells; also called Number 32 (DO-HLA2)
# [23] = biological target: T13, KIR3DL2 mutant M1 + 2A3 (P14S; S15A; …); experiment: binding to HEK-293T cells transfected with KIR3DL2 mutant; '-' = substantially complete loss of binding
Binder,binding result [1],binding result [2],binding result [3],binding result [4],binding result [5],binding result [6],binding result [7],binding result [8],binding result [9],binding result [10],binding result [11],binding result [12],binding result [15],binding result [16],binding result [17],binding result (KIR3DL2 mutant M5 (P66T)),binding result [19],binding result [21],binding result [22],also measured
"antibody 20E9 (antibody, V domains shown, Parental murine monoclonal antibody) VH: QVQLQQSGAEVARPGASVKLSCKSSGFTFTTYWMQWVKQRPGQGLEWIGAIYPGDGDTRYTQKFKGKATLTADKSSITAYMQLSSLASEDSAVYYCARRGDYGNYGMDYWGQGTSVTVSS VL: DVLMTQTPLSLPVSLGDQASISCRSSQSIVHSNGNTYLEWYLQKPGQSPKLLIYKVSNHFSGVPDRFSGSGSGTDFTLKISRVEAEDLGVYYCFQGSHVPPTFGGGTKLEIK",binds,binds,binds,binds,binds,binds,binds,no binding,,,,,,,,,,,,
"antibody 1C3 (antibody, V domains shown, Parental murine monoclonal antibody; also called 1C3 MAb) VH: QVQLQQSGAELARPGASVKLSCKASGYTFTSYWMQWVKQRPGQGLEWIGAIYPGDGDTRYTQKFKGKATLTADKSSSTAYMQLSSLASEDSAVYYCARRYDGYYHFDYWGQGTTLTVS VL: DIVMTQSPSSLAVTAGEKVTMSCKSSQSLLWSVNQKNYLSWYQQKQRQPPKLLIYGASIRESWVPDRFTGSGSGTDFTLTISNVHAEDLAVYYCQHNHGSFLPLTFGSGTKLEIK",binds,binds,binds,binds,binds,binds,binds,no binding,,,,,,,,,,,,
"antibody 13H1 (antibody, V domains shown, Parental murine monoclonal antibody) VH: EVQLQQSGPELVKPGASMKISCKASHYSFIGYTMNWVKQRHGKNLEWIGLINPYNGDTTYNQKFKGKASLTVDKSSSTAYMEILSLTSEDSAVYYCARENWGYPYAMDYWGQGTSVTVS VL: not shown",,,,,,,,,binds,binds,binds,binds,no binding,no binding,,,,,,binding result [13]: binds; binding result [14]: no binding
"antibody 1E2 (antibody, V domains shown, Parental murine monoclonal antibody) VH: QVQLQQSGAELVRPGVSVKISCKGSGYTFTDYAMNWVKQSHAKSLEWIGVISTYYGDANYNQKFKGKATMTVDKSSSTAYMELARLTSEDSAIYYCALIYYDYDGSYWGQGTTLTVS VL: DVVMTQTPLSLPVSLGDQASISCRSSQSLVHSNGNTYLHWYLQKPGQSPKLLIYKVSNRFSGVPDRFSGSGSGTDFTLKISRVEAEDLGVYFCSQSTHVPPYTFGGGTKLEIK",binds,,,,,,,,binds,binds,binds,binds,,,binds,binds,binds,binds,binds,binding result [18]: binds; binding result [20]: binds; binding result [23]: no binding
"antibody 10F6 (antibody, V domains shown, Parental murine monoclonal antibody) VH: QIQLVQSGPELKKPGETVRISCKASGYTFTIAGMQWVQKMPGKGLKWIGWINTHSGVPKYAEDFKGRFAFSLETSANIAYLQISNLKNEDTATYFCARGGDEGVMDYWGQGTSVTVS VL: DIVMTQSHKFMSTSVGDRVSITCKASQDVSTAVAWYHQKPGQSPKLLIYWASTRHTGVPDRFSGSGSGTDYTLTISALQAEDLALYYCQQHYNTPWTFGGGTKLEIK",binds,,,,,,,,binds,binds,binds,binds,no binding,no binding,binds,binds,binds,binds,binds,
"antibody 2B12 (antibody, V domains shown, Parental murine monoclonal antibody) VH: QIQLVQSGPELKKPGETVRISCKASGYTFTTAGMQWVQKTPGKGLKWIGWINSHSGVPKYAEDFKGRFAFSLETSASTAYLQISTLKNEDTATYFCARGGDEGVMDYWGQGTSVTVS VL: DIVMTQSHKFMSTSLGDRVSFTCKASQDVSTAVAWYQQKPGQSPKLLIYWTSTRHTGVPDRFTGSGSGTDYTLTISSVQAEDLALYYCQQHYSTPWTFGGGTKLEIK",binds,,,,,,,,binds,binds,binds,binds,no binding,no binding,binds,binds,binds,binds,binds,
